Our source for the activity (transformants/ug DNA) values is patent US6319692.

The subject of this series is phiFSW integrase (Int) (Lactobacillus casei temperate phage phiFSW). The series is described as follows: cell_activity.

On to attB (L. casei YIT9029), for which the activity (transformants/ug DNA) (chromosomal attB as integration site, attB lost and attL/attR formed in all analysed transformants, in vivo, no direct binding measured) was found to be 1000.

In the case of attP (phiFSW), the activity (transformants/ug DNA) (pMSK742 integration into YIT9029 chromosome via attP x attB, no transformants when int region deleted, attL and attR confirmed by PCR, Southern and sequencing) came to 1000.
